For 1 substance, degradation of total CD81, Western blot of HepG2 cells results are on record in US20170224816A1.

The experiment has as its target CD81 (UniProt P60033). The experiment can be described thus: cell-based or functional assay.
UniProt P60033, sequence (P60033 whole entry): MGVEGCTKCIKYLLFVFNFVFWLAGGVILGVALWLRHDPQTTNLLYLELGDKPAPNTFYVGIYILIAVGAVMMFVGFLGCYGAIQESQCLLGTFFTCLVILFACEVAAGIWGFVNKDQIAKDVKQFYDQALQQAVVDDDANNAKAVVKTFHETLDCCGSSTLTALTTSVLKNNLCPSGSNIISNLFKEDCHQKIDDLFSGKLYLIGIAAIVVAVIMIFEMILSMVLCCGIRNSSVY

In turn, “PCSK9 (proprotein convertase subtilisin/kexin type 9) (from UniProt Q8NBP7 31-692) (enzyme)” came in with a degradation of total CD81, Western blot of HepG2 cells of 25%.
